According to the supplement of paper PMC5998384:

Assays:
HeLa Kyoto [1] = assay: melting temperature (median over replicates), in situ; higher = more thermally stable
HeLa Kyoto [2] = assay: thermal stability score vs G1/S (z-score of summed log2 fold changes over temperatures); higher = more thermally stable than in G1/S
HeLa Kyoto [3] = assay: solubility change mitosis vs G1/S (difference of NP-40 vs SDS log2 ratios) (log2 ratio difference); higher = more soluble in mitosis
HeLa Kyoto [4] = assay: solubility in G1/S (NP-40 vs SDS abundance) (log2 ratio); higher = more soluble; conditions: cell cycle stage: G1/S
[5] = cell cycle stage: early G1 (4.5 h after nocodazole release)
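For melting temperature (median over replicates), in situ in this document: HeLa Kyoto cells synchronized by double thymidine or nocodazole block, proteins quantified by TMT10plex mass spectrometry, three independent biological replicates.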
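For solubility change mitosis vs G1/S (difference of NP-40 vs SDS log2 ratios) in this document: synchronized HeLa Kyoto cells (double thymidine block for G1/S, nocodazole release for mitosis), protein amounts in NP-40 versus SDS lysates quantified by mass spectrometry, three biological replicates.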
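For solubility in G1/S (NP-40 vs SDS abundance) in this document: HeLa Kyoto cells arrested at G1/S by double thymidine block, proteins quantified by TMT10plex mass spectrometry in mild NP-40 versus SDS extracts, three biological replicates.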
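For thermal stability score vs G1/S (z-score of summed log2 fold changes over temperatures) in this document: synchronized HeLa Kyoto cells, proteins quantified by TMT10plex mass spectrometry, three biological replicates, mitosis taken 0.5 h after nocodazole release, G1/S directly after double thymidine block.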

Sequence | melting temperature (HeLa Kyoto [1]; cell cycle stage: G1/S) [°C] | melting temperature (HeLa Kyoto [1]; cell cycle stage: mitosis) [°C] | thermal stability score (HeLa Kyoto [2]; [5]) | thermal stability score (HeLa Kyoto [2]; cell cycle stage: mitosis) | solubility change mitosis (log2) (HeLa Kyoto [3]) | solubility in G1/S (log2) (HeLa Kyoto [4])
MSVDMNSQGSDSNEEDYDPNCEEEEEEEEDDPGDIEDYYVGVASDVEQQGADAFDPEEYQFTCLTYKESEGALNEHMTSLASVLKVSHSVAKLILVNFHWQVSEILDRYKSNSAQLLVEARVQPNPSKHVPTSHPPHHCAVCMQFVRKENLLSLACQHQFCRSCWEQHCSVLVKDGVGVGVSCMAQDCPLRTPEDFVFPLLPNEELREKYRRYLFRDYVESHYQLQLCPGADCPMVIRVQEPRARRVQCNRCNEVFCFKCRQMYHAPTDCATIRKWLTKCADDSETANYISAHTKDCPKCNICIEKNGGCNHMQCSKCKHDFCWMCLGDWKTHGSEYYECSRYKENPDIVNQSQQAQAREALKKYLFYFERWENHNKSLQLEAQTYQRIHEKIQERVMNNLGTWIDWQYLQNAAKLLAKCRYTLQYTYPYAYYMESGPRKKLFEYQQAQLEAEIENLSWKVERADSYDRGDLENQMHIAEQRRRTLLKDFHDT [ARIH2] | 51.8 | 52.3 | 0.643 | -0.0869 | -0.151 | -0.242
MSVGCACPGCSSKSFKLYSPKEPPNGNAFPPFHPGTMLDRDVGPTPMYPPTYLEPGIGRHTPYGNQTDYRIFELNKRLQNWTEECDNLWWDAFTTEFFEDDAMLTITFCLEDGPKRYTIGRTLIPRYFRSIFEGGATELYYVLKHPKEAFHSNFVSLDCDQGSMVTQHGKPMFTQVCVEGRLYLEFMFDDMMRIKTWHFSIRQHRELIPRSILAMHAQDPQMLDQLSKNITRCGLSNSTLNYLRLCVILEPMQELMSRHKTYSLSPRDCLKTCLFQKWQRMVAPPAEPTRQQPSKRRKRKMSGGSTMSSGGGNTNNSNSKKKSPASTFALSSQVPDVMVVGEPTLMGGEFGDEDERLITRLENTQFDAANGIDDEDSFNNSPALGANSPWNSKPPSSQESKSENPTSQASQ [LDB1] | 54.2 | 55.8 | -3.74 | -2.44 | -0.0611 | -0.0659
MSVGFIGAGQLAYALARGFTAAGILSAHKIIASSPEMNLPTVSALRKMGVNLTRSNKETVKHSDVLFLAVKPHIIPFILDEIGADVQARHIVVSCAAGVTISSVEKKLMAFQPAPKVIRCMTNTPVVVQEGATVYATGTHALVEDGQLLEQLMSSVGFCTEVEEDLIDAVTGLSGSGPAYAFMALDALADGGVKMGLPRRLAIQLGAQALLGAAKMLLDSEQHPCQLKDNVCSPGGATIHALHFLESGGFRSLLINAVEASCIRTRELQSMADQEKISPAALKKTLLDRVKLESPTVSTLTPSSPGKLLTRSLALGGKKD [PYCR2] | 54.9 | 54.5 | 1.32 | -3.51 | -0.0672 | 0.291
MSVTLHTDVGDIKIEVFCERTPKTCENFLALCASNYYNGCIFHRNIKGFMVQTGDPTGTGRGGNSIWGKKFEDEYSEYLKHNVRGVVSMANNGPNTNGSQFFITYGKQPHLDMKYTVFGKVIDGLETLDELEKLPVNEKTYRPLNDVHIKDITIHANPFAQ [PPIL3] | 48.9 | 50 | 1.02 | 1.31 | -0.00294 | 0.455
MSYDRAITVFSPDGHLFQVEYAQEAVKKGSTAVGVRGRDIVVLGVEKKSVAKLQDERTVRKICALDDNVCMAFAGLTADARIVINRARVECQSHRLTVEDPVTVEYITRYIASLKQRYTQSNGRRPFGISALIVGFDFDGTPRLYQTDPSGTYHAWKANAIGRGAKSVREFLEKNYTDEAIETDDLTIKLVIKALLEVVQSGGKNIELAVMRRDQSLKILNPEEIEKYVAEIEKEKEENEKKKQKKAS [PSMA7] | 59 | 62.2 | -1.05 | -2.15 | -0.0151 | 0.332
MSYTGFVQGSETTLQSTYSDTSAQPTCDYGYGTWNSGTNRGYEGYGYGYGYGQDNTTNYGYGMATSHSWEMPSSDTNANTSASGSASADSVLSRINQRLDMVPHLETDMMQGGVYGSGGERYDSYESCDSRAVLSERDLYRSGYDYSELDPEMEMAYEGQYDAYRDQFRMRGNDTFGPRAQGWARDARSGRPMASGYGRMWEDPMGARGQCMSGASRLPSLFSQNIIPEYGMFQGMRGGGAFPGGSRFGFGFGNGMKQMRRTWKTWTTADFRTKKKKRKQGGSPDEPDSKATRTDCSDNSDSDNDEGTEGEATEGLEGTEAVEKGSRVDGEDEEGKEDGREEGKEDPEKGALTTQDENGQTKRKLQAGKKSQDKQKKRQRDRMVERIQFVCSLCKYRTFYEDEMASHLDSKFHKEHFKYVGTKLPKQTADFLQEYVTNKTKKTEELRKTVEDLDGLIQQIYRDQDLTQEIAMEHFVKKVEAAHCAACDLFIPMQFGIIQKHLKTMDHNRNRRLMMEQSKKSSLMVARSILNNKLISKKLERYLKGENPFTDSPEEEKEQEEAEGGALDEGAQGEAAGISEGAEGVPAQPPVPPEPAPGAVSPPPPPPPEEEEEGAVPLLGGALQRQIRGIPGLDVEDDEEGGGGAP [AKAP8L] | 47.1 | 48.8 | 0.782 | 1.54 | 0.0856 | -0.123
MTAAENVCYTLINVPMDSEPPSEISLKNDLEKGDVKSKTEALKKVIIMILNGEKLPGLLMTIIRFVLPLQDHTIKKLLLVFWEIVPKTTPDGRLLHEMILVCDAYRKDLQHPNEFIRGSTLRFLCKLKEAELLEPLMPAIRACLEHRHSYVRRNAVLAIYTIYRNFEHLIPDAPELIHDFLVNEKDASCKRNAFMMLIHADQDRALDYLSTCIDQVQTFGDILQLVIVELIYKVCHANPSERARFIRCIYNLLQSSSPAVKYEAAGTLVTLSSAPTAIKAAAQCYIDLIIKESDNNVKLIVLDRLIELKEHPAHERVLQDLVMDILRVLSTPDLEVRKKTLQLALDLVSSRNVEELVIVLKKEVIKTNNVSEHEDTDKYRQLLVRTLHSCSVRFPDMAANVIPVLMEFLSDNNEAAAADVLEFVREAIQRFDNLRMLIVEKMLEVFHAIKSVKIYRGALWILGEYCSTKEDIQSVMTEIRRSLGEIPIVESEIKKEAGELKPEEEITVGPVQKLVTEMGTYATQSALSSSRPTKKEEDRPPLRGFLLDGDFFVAASLATTLTKIALRYVALVQEKKKQNSFVAEAMLLMATILHLGKSSLPKKPITDDDVDRISLCLKVLSECSPLMNDIFNKECRQSLSHMLSAKLEEEKLSQKKESEKRNVTVQPDDPISFMQLTAKNEMNCKEDQFQLSLLAAMGNTQRKEAADPLASKLNKVTQLTGFSDPVYAEAYVHVNQYDIVLDVLVVNQTSDTLQNCTLELATLGDLKLVEKPSPLTLAPHDFANIKANVKVASTENGIIFGNIVYDVSGAASDRNCVVLSDIHIDIMDYIQPATCTDAEFRQMWAEFEWENKVTVNTNMVDLNDYLQHILKSTNMKCLTPEKALSGYCGFMAANLYARSIFGEDALANVSIEKPIHQGPDAAVTGHIRIRAKSQGMALSLGDKINLSQKKTSI [COPB1] | 51.8 | 51.7 | 0.105 | 1.39 | -0.197 | -0.149
MTAELQQDDAAGAADGHGSSCQMLLNQLREITGIQDPSFLHEALKASNGDITQAVSLLTDERVKEPSQDTVATEPSEVEGSAANKEVLAKVIDLTHDNKDDLQAAIALSLLESPKIQADGRDLNRMHEATSAETKRSKRKRCEVWGENPNPNDWRRVDGWPVGLKNVGNTCWFSAVIQSLFQLPEFRRLVLSYSLPQNVLENCRSHTEKRNIMFMQELQYLFALMMGSNRKFVDPSAALDLLKGAFRSSEEQQQDVSEFTHKLLDWLEDAFQLAVNVNSPRNKSENPMVQLFYGTFLTEGVREGKPFCNNETFGQYPLQVNGYRNLDECLEGAMVEGDVELLPSDHSVKYGQERWFTKLPPVLTFELSRFEFNQSLGQPEKIHNKLEFPQIIYMDRYMYRSKELIRNKRECIRKLKEEIKILQQKLERYVKYGSGPARFPLPDMLKYVIEFASTKPASESCPPESDTHMTLPLSSVHCSVSDQTSKESTSTESSSQDVESTFSSPEDSLPKSKPLTSSRSSMEMPSQPAPRTVTDEEINFVKTCLQRWRSEIEQDIQDLKTCIASTTQTIEQMYCDPLLRQVPYRLHAVLVHEGQANAGHYWAYIYNQPRQSWLKYNDISVTESSWEEVERDSYGGLRNVSAYCLMYINDKLPYFNAEAAPTESDQMSEVEALSVELKHYIQEDNWRFEQEVEEWEEEQSCKIPQMESSTNSSSQDYSTSQEPSVASSHGVRCLSSEHAVIVKEQTAQAIANTARAYEKSGVEAALSEVMLSPAMQGVILAIAKARQTFDRDGSEAGLIKAFHEEYSRLYQLAKETPTSHSDPRLQHVLVYFFQNEAPKRVVERTLLEQFADKNLSYDERSISIMKVAQAKLKEIGPDDMNMEEYKKWHEDYSLFRKVSVYLLTGLELYQKGKYQEALSYLVYAYQSNAALLMKGPRRGVKESVIALYRRKCLLELNAKAASLFETNDDHSVTEGINVMNELIIPCIHLIINNDISKDDLDAIEVMRNHWCSYLGQDIAENLQLCLGEFLPRLLDPSAEIIVLKEPPTIRPNSPYDLCSRFAAVMESIQGVSTVTVK [USP28] | 48 | 49.4 | 0.432 | 0.537 | -0.0214 | 0.0518
MTAPCSQPAQLPGRRQLGLVPFPPPPPRTPLLWLLLLLLAAVAPARGWESGDLELFDLVEEVQLNFYQFLGVQQDASSADIRKAYRKLSLTLHPDKNKDENAETQFRQLVAIYEVLKDDERRQRYDDILINGLPDWRQPVFYYRRVRKMSNAELALLLFIILTVGHYAVVWSIYLEKQLDELLSRKKREKKKKTGSKSVDVSKLGASEKNERLLMKPQWHDLLPCKLGIWFCLTLKALPHLIQDAGQFYAKYKETRLKEKEDALTRTELETLQKQKKVKKPKPEFPVYTPLETTYIQSYDHGTSIEEIEEQMDDWLENRNRTQKKQAPEWTEEDLSQLTRSMVKFPGGTPGRWEKIAHELGRSVTDVTTKAKQLKDSVTCSPGMVRLSELKSTVQNSRPIKTATTLPDDMITQREDAEGVAAEEEQEGDSGEQETGATDARPRRRKPARLLEATAKPEPEEKSRAKRQKDFDIAEQNESSDEESLRKERARSAEEPWTQNQQKLLELALQQYPRGSSDRWDKIARCVPSKSKEDCIARYKLLVELVQKKKQAKS [DNAJC1] | 52.8 | 52.8 | 1.18 | 1.18 | -0.0698 | 0.161
